This note sets out measurements from patent publication US20260022170A1 (published 2026).

Test [1] has as its target recombinant human Siglec-9 protein (UniProt Q9Y336 18-348). Put plainly: ELISA.
The target in test [2] is human Siglec-9 protein (recombinant; construct not stated) (UniProt Q9Y336 18-344). Put plainly: BLI. For orientation: BLI is a label-free optical method that tracks binding on a fibre tip over time.
Test [3] addresses recombinant Siglec-9 (SinoBiological, 30109-H03H) (UniProt Q9Y336 18-348). Put plainly: ELISA. On the technique in general: ELISA stands for enzyme-linked immunosorbent assay.

Chain of human Siglec-9 protein (recombinant; construct not stated) (Q9Y336 18-344): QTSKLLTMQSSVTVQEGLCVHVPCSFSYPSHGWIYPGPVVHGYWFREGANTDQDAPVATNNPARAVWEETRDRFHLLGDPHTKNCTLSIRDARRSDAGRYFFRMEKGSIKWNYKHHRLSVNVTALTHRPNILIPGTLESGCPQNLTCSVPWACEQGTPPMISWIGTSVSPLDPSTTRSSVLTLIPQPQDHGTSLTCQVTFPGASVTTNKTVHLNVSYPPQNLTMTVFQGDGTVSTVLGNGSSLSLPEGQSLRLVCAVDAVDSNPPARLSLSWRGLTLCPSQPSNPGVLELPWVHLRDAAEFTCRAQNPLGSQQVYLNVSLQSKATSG
Chain of recombinant human Siglec-9 protein (Q9Y336 18-348): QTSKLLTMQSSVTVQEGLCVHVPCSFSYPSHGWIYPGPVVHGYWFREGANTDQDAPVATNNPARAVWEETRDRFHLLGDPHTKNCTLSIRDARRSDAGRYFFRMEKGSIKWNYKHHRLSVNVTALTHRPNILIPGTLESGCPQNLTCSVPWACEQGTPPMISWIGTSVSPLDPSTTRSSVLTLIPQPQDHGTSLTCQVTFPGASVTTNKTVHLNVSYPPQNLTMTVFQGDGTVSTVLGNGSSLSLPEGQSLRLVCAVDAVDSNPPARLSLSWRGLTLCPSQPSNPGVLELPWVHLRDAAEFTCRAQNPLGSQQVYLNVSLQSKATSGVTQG
Chain of recombinant Siglec-9 (SinoBiological, 30109-H03H) (Q9Y336 18-348): as above

B1: Benchmark-3 (antibody, V domains shown)
VH: QSLEESGGRLVKPDETLTITCTVSGIDLSSYDMTWVRQAPGKGLEWIGIIYTGGLTYYASWAKGRFTISKTSTTVDLKITSPTTEDTATYFCAREVGDNNNFWGPGTLVTVSS
VL: DVVMTQTPASVSEPVGGTVTIKCQASESVDSGLAWYHQKPGQPPKLLIYDDTDLASGVPSRFKGSRSGTAHTLTISDLECADAATYYCQYTDYGRTYVGTFGGGTEVVIKG
For the molecule B1, the EC50 in test [1] turned out to be 0.157 nM.

B2: anti-Siglec-9 monoclonal antibody clone ED2D5 (antibody, V domains shown)
VH: EVQLVESGGGLVKPGGSLKLSCAASGFTFSDYYMYWVRQTPEKRLEWVATISDGGSDTYYPDNMKGRFTISRDNAKNNLYLQMSSLKSEDTAMYYCTRDPDYDDGRFAYWGQGTLVTVSA
VL: DIVMTQSHKFMSTSVGDRVSITCKASQDVGTVVAWYQQKSGQSPKLLIYWSSTRHTGVPDRFTGSGSGTDFTLTISNVQSEDLADYFCQQYIDYPLSFGAGTKLELK
In the case of B2, in test [2], the dissociation constant Kd turned out to be 38 nM.

B3: anti-Siglec-9 monoclonal antibody clone CB6B3 (parental mouse antibody) (antibody, V domains shown)
VH: EVQLQQSGAEVVRPGALVKLSCKAAGFNIKDYFIHWVKQRPEQGLEWIGLIDPENDNTMYDPRFQVKASLTADTSSNTAYLQLSRLTSEDAAVYYCASTVVARSFDYWGQGTTLTVSS
VL: SIVMTQTPKFLLVSAGDRVTITCKASQSVSNDVAWYQQKSGQSPKLLIYYTSNRYTGVPDRFTGSGYGTDFTFTISTVQAEDLAVYFCQQDFRSPFTFGAGTKLELK
As to B3, in test [2], the Kd worked out at 80 nM.

B4: humanised CB6B3 (huCB6B3) (antibody, V domains shown)
VH: EVQLVQSGAEVKKPGATVKISCKVSGYTFTDYFIHWVQQAPGKGLEWMGLIDPENDNTMYDPRFQVRVTITADTSTDTAYMELSSLRSEDTAVYYCASTVVARSFDYWGQGTTVTVSS
VL: AIQMTQSPSSLSASVGDRVTITCKASQSVSNDVAWYQQKPGKAPKLLIYYTSNRYTGVPSRFSGSGSGTDFTLTISSLQPEDFATYYCQQDFRSPFTFGGGTKVEIK
On to B4, for which the EC50 in test [3] worked out at 0.13 nM.

One may read the EC50 as the midpoint of the concentration-response curve. One may read the Kd as the free concentration of one partner at which half of the binding sites on the other are occupied at equilibrium, for simple one-to-one binding.
